Data: patent US20210386829A1, “COMPOSITIONS AND METHODS FOR MODULATING CGRP SIGNALING TO REGULATE INNATE LYMPHOID CELL INFLAMMATORY RESPONSES” (The Broad Institute, Inc., priority 2018, published 2021)

Test system: lung-resident ILCs
Experiment: SMART-Seq2 plate-based scRNA-seq of lung-resident ILCs from PBS-, IL-25- or IL-33-treated mice, differential gene expression by logistic regression (Tables 3, 4)
Assay type: in vivo, mouse
Text: Mice and in vivo ILC activation. C57B1/6J mice were purchased from the Jackson Laboratory. Nmur1-LacZ reporter mice with a LacZ cassette knocked into the Nmur1 locus were rederived from Nmur1^tm1.1(KOMP)Vlcg sperm obtained from the trans-NIH Knock-Out Mouse Project (KOMP) Repository. NMU-deficient mice (NMU-KO) were rederived from B6.129S2-Nmu<tm1Mko> embryos from the RIKEN BioResource Center. For experiments with Nmur1-LacZ (Nmur1-KO) and NMU-KO mice, littermates that were either homozygous or heterozygous for the wild type allele were used as controls. Mice were housed under specific-pathogen-free conditions. For experiments, mice were matched for sex and age, and most mice were 6-10 weeks old. Where indicated, mice were anesthetized with Isoflurane and treated intranasally with the indicated stimuli (500 ng IL-25, 500 ng IL-33, or 20 μg Neuromedin U) daily for three consecutive days. The total administered volume was 20 μl for all conditions. Mice were randomly assigned to treatment groups after matching for sex and age. […] Mice were treated intranasally with 10 μg HDM on day 0, 7, 8, and 9, prior to sacrifice on day 10. All experiments were conducted in accordance with animal protocols approved by the Harvard Medical Area Standing Committee on Animals or BWH IACUC.
Fluorescence-activated cell sorting of innate lymphoid cells. After dissociation, single cell suspensions were incubated with CD90.2 MicroBeads (Miltenyi Biotec) on ice and enriched for CD90.2^+ cells by magnetic separation using LS columns according to the manufacturer's protocol. CD90.2^+ lung cells were then stained on ice with antibodies for sorting. ILCs were defined as 7AAD^− CD45^+ CD90.2^+ CD127^+ Lineage (CD11b, CD11c, CD19, NK1.1, […], CD4, CD8a, TCRβ, TCRγδ)^− cells and sorted on a BD FACS Aria (BD Biosciences).
For full-length scRNA-Seq, single ILCs were sorted into 96-well plates containing 5 ul TCL Buffer (QIAGEN) with 1% 2-Mercaptoethanol, centrifuged and frozen at −80° C. SMART-Seq2 protocol was carried out as previously described^23 with minor modifications in the reverse transcription step. cDNA was amplified with 22 cycles and fragmented with one-eighth of the standard Illumina NexteraXT reaction volume. Single-cell libraries were pooled and paired-end sequenced (38 bp×2) with a 75 cycle Nextseq 500 high output V2 kit.
Analysis of SMART-Seq2 plate-based scRNA-Seq data. Reads were aligned to mm10 using Kallisto (Bray, N. L., Pimentel, H., Meisted, P. & Pachter, L. Near-optimal probabilistic RNA-seq quantification. Nat Biotechnol 134, 525-527, doi:10.1038/nbt.3519 (2016)) quant, version 0.42.3. The R package tximport (Soneson, C., Love, M. I. & Robinson, M. D. Differential analyses for RNA-seq: transcript-level estimates improve gene-level inferences [version 2; referees: 2 approved]. F1000Research 4, doi:10.12688/f1000research.7563.2 (2016)), version 1.2.0, was used to convert the output to gene counts and traditional TPM values. Because of the variability in read counts per cell across plates, even from the same condition, as well as in the number of genes per cell across conditions, QC was performed for each of eight plates individually in order to remove cells that were outliers with respect to either measure. Out of 752 cells, 606 cells met QC criteria (234 from control, 152 from IL-25 treated mice, and 220 from IL-33 treated mice), and the number of genes per cell in this set ranged from 1,625 to 6,375. Genes that were not expressed with log(TPM)>2.5 in at least two cells were removed from further analysis. Subsequent analysis proceeded analogously to the droplet-based RNA-seq analysis, with parameter settings that reflected both the wider dynamic range of expression and much smaller cell numbers. The minimum ILC signature score required in ILC type assignment was 0.3. Variable genes were identified by running MeanVarPlot with x.low.cutoff=0.1, y.cutoff=1.5, and x.high.cutoff=10, resulting in a set of 519 genes. […]

B1: IL25 (protein, UniProt Q8VHH8 17-169, looked up)
Interleukin-25: VSLRIQEGCSHLPSCCPSKEQEPPEEWLKWSSASVSPPEPLSHTHHAESCRASKDGPLNSRAISPWSYELDRDLNRVPQDLYHARCLCPHCVSLQTGSHMDPLGNSVPLYHNQTVFYRRPCHGEEGTHRRYCLERRLYRVSLACVCVRPRVMA
Work on B1 yielded a 0610031J06Rik expression coeff of 0.555, a 1700017B05Rik expression coeff of −1.49 and a 1700113H08Rik expression coeff of −0.86. It also gave a 4632428N05Rik expression coeff of 1.28, an AA467197 expression coeff of −0.724 and an AI593442 expression coeff of −2.55. It also gave an AI836003 expression coeff of −0.781, an AW112010 expression coeff of 0.787 and an Abtb2 expression coeff of 0.292. For the same molecule, the Acot7 expression coeff was 0.807, the Adrbk1 expression coeff was 0.798 and the Adsl expression coeff was −1.77. For the same molecule, the Ahcyl2 expression coeff was −1.01, the Amd1 expression coeff was −0.74 and the Anxa2 expression coeff was 0.693. For the same molecule, the Ap3d1 expression coeff was 0.719, the Arf5 expression coeff was 0.592 and the Arhgap1 expression coeff was 1.34. For the same molecule, the Arhgap26 expression coeff was 0.821, the Asl expression coeff was 1.17 and the Asph expression coeff was −1.27. The Atp8b4 expression coeff was 1, the Atxn7l3b expression coeff was 0.557 and the Bcl2a1d expression coeff was 0.357. For the same molecule, the Bcl3 expression coeff was 1.33, the Bcl6 expression coeff was 1.29 and the Bmp2 expression coeff was −0.856. For the same molecule, the Brix1 expression coeff was −0.00742, the C1qbp expression coeff was −0.742 and the Cap1 expression coeff was 1.28. It also gave a Cblb expression coeff of 1.08, a Ccdc50 expression coeff of 1.05 and a Ccdc142 expression coeff of −1.86. It also gave a Ccng1 expression coeff of 0.622, a Ccr2 expression coeff of −1.53 and a Cd247 expression coeff of 1.16. For the same molecule, the Chdh expression coeff was −0.136, the Chordc1 expression coeff was 1.4 and the Chst11 expression coeff was −0.0352. It also gave a Cirbp expression coeff of −1.41, a Commd10 expression coeff of −0.867 and a Cox10 expression coeff of 0.786. It also gave a Cpsf7 expression coeff of 0.986, a Crlf2 expression coeff of 0.355 and a Csf1 expression coeff of −1.01. It also gave a Cst7 expression coeff of −0.0555, a Ctla4 expression coeff of 1.48 and a Ctsw expression coeff of −0.0379. The Cybrd1 expression coeff was −0.158, the Dcaf12 expression coeff was 0.717 and the Ddrgk1 expression coeff was −0.21. It also gave a Ddx20 expression coeff of −1.24, a Ddx58 expression coeff of 0.528 and a Dennd5a expression coeff of 0.929. The Dgka expression coeff was −0.0503, the Dhx35 expression coeff was −1.63 and the Dhx37 expression coeff was −0.288. It also gave a Dhx58 expression coeff of 2.3, a Dkk3 expression coeff of −0.0269 and a Dock10 expression coeff of −0.792. For the same molecule, the E030030I06Rik expression coeff was −0.87, the Ecm1 expression coeff was −0.0192 and the Endod1 expression coeff was 0.398. It also gave an Epsti1 expression coeff of 1.79, an Eva1b expression coeff of 0.99 and an Exosc4 expression coeff of −0.31. For the same molecule, the Extl3 expression coeff was −0.16, the Fam118a expression coeff was −0.764 and the Fbxl21 expression coeff was 12.2. It also gave a Ffar2 expression coeff of 1.36, a Fhl2 expression coeff of −1.07 and a Fosb expression coeff of 0.156. It also gave a Foxo3 expression coeff of 2.06, a Fus expression coeff of −0.388 and a Gal3st3 expression coeff of −1.01. For the same molecule, the Gba expression coeff was −0.05, the Gbp4 expression coeff was 0.318 and the Gbp6 expression coeff was 0.949. The Gbp9 expression coeff was 0.745, the Gga1 expression coeff was 0.739 and the Gigyf1 expression coeff was −0.844. It also gave a Glrx expression coeff of 0.346, a Gm12250 expression coeff of 3.54 and a Gnai2 expression coeff of 0.501. The Gng2 expression coeff was 1.06, the Gnl3l expression coeff was −0.617 and the Gp49a expression coeff was 1.04. It also gave a Gpr108 expression coeff of 0.205, a Grn expression coeff of −0.326 and a Gskip expression coeff of 0.645. The Gucd1 expression coeff was −0.0721, the H2-T9 expression coeff was 0.437 and the H2-T10 expression coeff was 0.799. For the same molecule, the H2-T22 expression coeff was 0.0651, the Herc6 expression coeff was 0.579 and the Hpcal1 expression coeff was −0.169. The Hsph1 expression coeff was 0.237, the Idh2 expression coeff was −0.56 and the Ifi35 expression coeff was 0.307. For the same molecule, the Ifngr2 expression coeff was −0.761, the Ifrd2 expression coeff was −1.53 and the Igfbp4 expression coeff was −2.9. The Igsf5 expression coeff was −0.93, the Il2rb expression coeff was 0.699 and the Il5 expression coeff was 1.4. For the same molecule, the Il13 expression coeff was 1.61, the Impact expression coeff was −1.46 and the Inpp1 expression coeff was 1.79. It also gave an Inpp4b expression coeff of −0.752, an Inpp5b expression coeff of 0.937 and an Irf4 expression coeff of 1.11. The Irf7 expression coeff was 0.423, the Isg15 expression coeff was 2.03 and the Isg20 expression coeff was 1.54. It also gave an Itgae expression coeff of −0.182, a Kit expression coeff of −0.406 and a Krit1 expression coeff of 0.612. It also gave a Lamp2 expression coeff of 0.692, a Lancl1 expression coeff of −1.11 and a Lat2 expression coeff of −0.0259. It also gave a Lcmt2 expression coeff of −2.32, a Lgals3bp expression coeff of 0.804 and a Lgals3 expression coeff of 0.303. For the same molecule, the Lilrb4 expression coeff was 0.943, the Lpcat2 expression coeff was −0.773 and the Lsm6 expression coeff was −0.616. For the same molecule, the Lxn expression coeff was 0.065, the Ly6a expression coeff was 0.412 and the Map2k4 expression coeff was 1.89. It also gave a Marf1 expression coeff of 3.17.
